The binders below were run against T1, CD3 epsilon homodimer protein (UniProt P07766 23-126) (assay: SPR Biacore T200, CD3 epsilon homodimer on CM4 chip, antibody as analyte;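 further: Amine-coupled CD3 epsilon homodimer, run at 25 °C in HBS-EP+ buffer, ratio is bound amount of each single-residue H chain variant over that of the parent antibody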).
T1 construct: Immobilized on Sensor chip CM4 by amine coupling; construct not described; also called CD3 (CD3 epsilon)
T1 sequence (P07766 23-126): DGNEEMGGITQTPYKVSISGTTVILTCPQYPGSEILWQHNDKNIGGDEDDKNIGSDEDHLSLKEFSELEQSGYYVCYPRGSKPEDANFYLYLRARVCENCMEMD

Binder | ratio of amounts bound (Y/X vs CE115HA000)
CE115HA000 D73N one-arm antibody (antibody, human IgG1, kappa, L234A L235A, N297A, name in Kabat numbering, one-arm antibody (one Fab)) heavy: QVQLVESGGGVVQPGRSLRLSCAASGFTFSNAWMHWVRQAPGKGLEWVAQIKAKSNNYATYYAESVKGRFTISRDNSKNSLYLQMNSLKTEDTAVYYCRYVHYGAYYGVDAWGQGTTVTVSSASTKGPSVFPLAPSSKSTSGGTAALGCLVKDYFPEPVTVSWNSGALTSGVHTFPAVLQSSGLYSLSSVVTVPSSSLGTQTYICNVNHKPSNTKVDKKVEPKSCDKTHTCPPCPAPEAAGGPSVFLFPPKPKDTLMISRTPEVTCVVVDVSHEDPEVKFNWYVDGVEVHNAKTKPREEQYASTYRVVSVLTVLHQDWLNGKEYKCKVSNKALPAPIEKTISKAKGQPREPQVYTLPPSRCELTKNQVSLSCAVKGFYPSDIAVEWESNGQPENNYKTTPPVLDSDGSFFLVSKLTVDKSRWQQGNVFSCSVMHEALHNHYTQKSLSLSPDYKDDDDK EPKSSDKTHTCPPCPAPELLGGPSVFLFPPKPKDTLMISRTPEVTCVVVDVSHEDPEVKFNWYVDGVEVHNAKTKPREEQYNSTYRVVSVLTVLHQDWLNGKEYKCKVSNKALPAPIEKTISKAKGQPREPQVCTLPPSRDELTKNQVSLWCLVKGFYPSDIAVEWESNGQPENNYKTTPPVLDSDGSFFLYSKLTVDKSRWQQGNVFSCSVMHEALHNRYTQKSLSLSP light: DIVMTQSPLSLPVTPGEPASISCRSSQSLVHSNRNTYLHWYQQKPGQAPRLLIYKVSNRFSGVPDRFSGSGSGTDFTLKISRVEAEDVGVYYCGQGTQVPYTFGQGTKLEIKRTVAAPSVFIFPPSDEQLKSGTASVVCLLNNFYPREAKVQWKVDNALQSGNSQESVTEQDSKDSTYSLSSTLTLSKADYEKHKVYACEVTHQGLSSPVTKSFNRGEC | 0.94
CE115HA000 D73R one-arm antibody (antibody, human IgG1, kappa, L234A L235A, N297A, name in Kabat numbering, one-arm antibody (one Fab)) heavy: QVQLVESGGGVVQPGRSLRLSCAASGFTFSNAWMHWVRQAPGKGLEWVAQIKAKSNNYATYYAESVKGRFTISRDRSKNSLYLQMNSLKTEDTAVYYCRYVHYGAYYGVDAWGQGTTVTVSSASTKGPSVFPLAPSSKSTSGGTAALGCLVKDYFPEPVTVSWNSGALTSGVHTFPAVLQSSGLYSLSSVVTVPSSSLGTQTYICNVNHKPSNTKVDKKVEPKSCDKTHTCPPCPAPEAAGGPSVFLFPPKPKDTLMISRTPEVTCVVVDVSHEDPEVKFNWYVDGVEVHNAKTKPREEQYASTYRVVSVLTVLHQDWLNGKEYKCKVSNKALPAPIEKTISKAKGQPREPQVYTLPPSRCELTKNQVSLSCAVKGFYPSDIAVEWESNGQPENNYKTTPPVLDSDGSFFLVSKLTVDKSRWQQGNVFSCSVMHEALHNHYTQKSLSLSPDYKDDDDK EPKSSDKTHTCPPCPAPELLGGPSVFLFPPKPKDTLMISRTPEVTCVVVDVSHEDPEVKFNWYVDGVEVHNAKTKPREEQYNSTYRVVSVLTVLHQDWLNGKEYKCKVSNKALPAPIEKTISKAKGQPREPQVCTLPPSRDELTKNQVSLWCLVKGFYPSDIAVEWESNGQPENNYKTTPPVLDSDGSFFLYSKLTVDKSRWQQGNVFSCSVMHEALHNRYTQKSLSLSP light: DIVMTQSPLSLPVTPGEPASISCRSSQSLVHSNRNTYLHWYQQKPGQAPRLLIYKVSNRFSGVPDRFSGSGSGTDFTLKISRVEAEDVGVYYCGQGTQVPYTFGQGTKLEIKRTVAAPSVFIFPPSDEQLKSGTASVVCLLNNFYPREAKVQWKVDNALQSGNSQESVTEQDSKDSTYSLSSTLTLSKADYEKHKVYACEVTHQGLSSPVTKSFNRGEC | 1.04
CE115HA000 D73T one-arm antibody (antibody, human IgG1, kappa, L234A L235A, N297A, name in Kabat numbering, one-arm antibody (one Fab)) heavy: QVQLVESGGGVVQPGRSLRLSCAASGFTFSNAWMHWVRQAPGKGLEWVAQIKAKSNNYATYYAESVKGRFTISRDTSKNSLYLQMNSLKTEDTAVYYCRYVHYGAYYGVDAWGQGTTVTVSSASTKGPSVFPLAPSSKSTSGGTAALGCLVKDYFPEPVTVSWNSGALTSGVHTFPAVLQSSGLYSLSSVVTVPSSSLGTQTYICNVNHKPSNTKVDKKVEPKSCDKTHTCPPCPAPEAAGGPSVFLFPPKPKDTLMISRTPEVTCVVVDVSHEDPEVKFNWYVDGVEVHNAKTKPREEQYASTYRVVSVLTVLHQDWLNGKEYKCKVSNKALPAPIEKTISKAKGQPREPQVYTLPPSRCELTKNQVSLSCAVKGFYPSDIAVEWESNGQPENNYKTTPPVLDSDGSFFLVSKLTVDKSRWQQGNVFSCSVMHEALHNHYTQKSLSLSPDYKDDDDK EPKSSDKTHTCPPCPAPELLGGPSVFLFPPKPKDTLMISRTPEVTCVVVDVSHEDPEVKFNWYVDGVEVHNAKTKPREEQYNSTYRVVSVLTVLHQDWLNGKEYKCKVSNKALPAPIEKTISKAKGQPREPQVCTLPPSRDELTKNQVSLWCLVKGFYPSDIAVEWESNGQPENNYKTTPPVLDSDGSFFLYSKLTVDKSRWQQGNVFSCSVMHEALHNRYTQKSLSLSP light: DIVMTQSPLSLPVTPGEPASISCRSSQSLVHSNRNTYLHWYQQKPGQAPRLLIYKVSNRFSGVPDRFSGSGSGTDFTLKISRVEAEDVGVYYCGQGTQVPYTFGQGTKLEIKRTVAAPSVFIFPPSDEQLKSGTASVVCLLNNFYPREAKVQWKVDNALQSGNSQESVTEQDSKDSTYSLSSTLTLSKADYEKHKVYACEVTHQGLSSPVTKSFNRGEC | 0.63

Second part, the binder after the results:

ratio of amounts bound (Y/X vs CE115HA000) | Binder
1.21 | CE115HA000 D101H one-arm antibody (antibody, human IgG1, kappa, L234A L235A, N297A, name in Kabat numbering, one-arm antibody (one Fab)) heavy: QVQLVESGGGVVQPGRSLRLSCAASGFTFSNAWMHWVRQAPGKGLEWVAQIKAKSNNYATYYAESVKGRFTISRDDSKNSLYLQMNSLKTEDTAVYYCRYVHYGAYYGVHAWGQGTTVTVSSASTKGPSVFPLAPSSKSTSGGTAALGCLVKDYFPEPVTVSWNSGALTSGVHTFPAVLQSSGLYSLSSVVTVPSSSLGTQTYICNVNHKPSNTKVDKKVEPKSCDKTHTCPPCPAPEAAGGPSVFLFPPKPKDTLMISRTPEVTCVVVDVSHEDPEVKFNWYVDGVEVHNAKTKPREEQYASTYRVVSVLTVLHQDWLNGKEYKCKVSNKALPAPIEKTISKAKGQPREPQVYTLPPSRCELTKNQVSLSCAVKGFYPSDIAVEWESNGQPENNYKTTPPVLDSDGSFFLVSKLTVDKSRWQQGNVFSCSVMHEALHNHYTQKSLSLSPDYKDDDDK EPKSSDKTHTCPPCPAPELLGGPSVFLFPPKPKDTLMISRTPEVTCVVVDVSHEDPEVKFNWYVDGVEVHNAKTKPREEQYNSTYRVVSVLTVLHQDWLNGKEYKCKVSNKALPAPIEKTISKAKGQPREPQVCTLPPSRDELTKNQVSLWCLVKGFYPSDIAVEWESNGQPENNYKTTPPVLDSDGSFFLYSKLTVDKSRWQQGNVFSCSVMHEALHNRYTQKSLSLSP light: DIVMTQSPLSLPVTPGEPASISCRSSQSLVHSNRNTYLHWYQQKPGQAPRLLIYKVSNRFSGVPDRFSGSGSGTDFTLKISRVEAEDVGVYYCGQGTQVPYTFGQGTKLEIKRTVAAPSVFIFPPSDEQLKSGTASVVCLLNNFYPREAKVQWKVDNALQSGNSQESVTEQDSKDSTYSLSSTLTLSKADYEKHKVYACEVTHQGLSSPVTKSFNRGEC
1.38 | CE115HA000 D101G one-arm antibody (antibody, human IgG1, kappa, L234A L235A, N297A, name in Kabat numbering, one-arm antibody (one Fab)) heavy: QVQLVESGGGVVQPGRSLRLSCAASGFTFSNAWMHWVRQAPGKGLEWVAQIKAKSNNYATYYAESVKGRFTISRDDSKNSLYLQMNSLKTEDTAVYYCRYVHYGAYYGVGAWGQGTTVTVSSASTKGPSVFPLAPSSKSTSGGTAALGCLVKDYFPEPVTVSWNSGALTSGVHTFPAVLQSSGLYSLSSVVTVPSSSLGTQTYICNVNHKPSNTKVDKKVEPKSCDKTHTCPPCPAPEAAGGPSVFLFPPKPKDTLMISRTPEVTCVVVDVSHEDPEVKFNWYVDGVEVHNAKTKPREEQYASTYRVVSVLTVLHQDWLNGKEYKCKVSNKALPAPIEKTISKAKGQPREPQVYTLPPSRCELTKNQVSLSCAVKGFYPSDIAVEWESNGQPENNYKTTPPVLDSDGSFFLVSKLTVDKSRWQQGNVFSCSVMHEALHNHYTQKSLSLSPDYKDDDDK EPKSSDKTHTCPPCPAPELLGGPSVFLFPPKPKDTLMISRTPEVTCVVVDVSHEDPEVKFNWYVDGVEVHNAKTKPREEQYNSTYRVVSVLTVLHQDWLNGKEYKCKVSNKALPAPIEKTISKAKGQPREPQVCTLPPSRDELTKNQVSLWCLVKGFYPSDIAVEWESNGQPENNYKTTPPVLDSDGSFFLYSKLTVDKSRWQQGNVFSCSVMHEALHNRYTQKSLSLSP light: DIVMTQSPLSLPVTPGEPASISCRSSQSLVHSNRNTYLHWYQQKPGQAPRLLIYKVSNRFSGVPDRFSGSGSGTDFTLKISRVEAEDVGVYYCGQGTQVPYTFGQGTKLEIKRTVAAPSVFIFPPSDEQLKSGTASVVCLLNNFYPREAKVQWKVDNALQSGNSQESVTEQDSKDSTYSLSSTLTLSKADYEKHKVYACEVTHQGLSSPVTKSFNRGEC
0.75 | CE115HA000 D101F one-arm antibody (antibody, human IgG1, kappa, L234A L235A, N297A, name in Kabat numbering, one-arm antibody (one Fab)) heavy: QVQLVESGGGVVQPGRSLRLSCAASGFTFSNAWMHWVRQAPGKGLEWVAQIKAKSNNYATYYAESVKGRFTISRDDSKNSLYLQMNSLKTEDTAVYYCRYVHYGAYYGVFAWGQGTTVTVSSASTKGPSVFPLAPSSKSTSGGTAALGCLVKDYFPEPVTVSWNSGALTSGVHTFPAVLQSSGLYSLSSVVTVPSSSLGTQTYICNVNHKPSNTKVDKKVEPKSCDKTHTCPPCPAPEAAGGPSVFLFPPKPKDTLMISRTPEVTCVVVDVSHEDPEVKFNWYVDGVEVHNAKTKPREEQYASTYRVVSVLTVLHQDWLNGKEYKCKVSNKALPAPIEKTISKAKGQPREPQVYTLPPSRCELTKNQVSLSCAVKGFYPSDIAVEWESNGQPENNYKTTPPVLDSDGSFFLVSKLTVDKSRWQQGNVFSCSVMHEALHNHYTQKSLSLSPDYKDDDDK EPKSSDKTHTCPPCPAPELLGGPSVFLFPPKPKDTLMISRTPEVTCVVVDVSHEDPEVKFNWYVDGVEVHNAKTKPREEQYNSTYRVVSVLTVLHQDWLNGKEYKCKVSNKALPAPIEKTISKAKGQPREPQVCTLPPSRDELTKNQVSLWCLVKGFYPSDIAVEWESNGQPENNYKTTPPVLDSDGSFFLYSKLTVDKSRWQQGNVFSCSVMHEALHNRYTQKSLSLSP light: DIVMTQSPLSLPVTPGEPASISCRSSQSLVHSNRNTYLHWYQQKPGQAPRLLIYKVSNRFSGVPDRFSGSGSGTDFTLKISRVEAEDVGVYYCGQGTQVPYTFGQGTKLEIKRTVAAPSVFIFPPSDEQLKSGTASVVCLLNNFYPREAKVQWKVDNALQSGNSQESVTEQDSKDSTYSLSSTLTLSKADYEKHKVYACEVTHQGLSSPVTKSFNRGEC
